From patent US20240382610A1 (TALLAC THERAPEUTICS, published 2024) come the findings set out here.

Assay [1] deals with T1, Human nectin-4 ECD-6His (TNT-175) (human, UniProt Q96NY8 32-349).
T1 construct: the entry holds the extracellular domain with the C-terminal 6His tag
T1 sequence: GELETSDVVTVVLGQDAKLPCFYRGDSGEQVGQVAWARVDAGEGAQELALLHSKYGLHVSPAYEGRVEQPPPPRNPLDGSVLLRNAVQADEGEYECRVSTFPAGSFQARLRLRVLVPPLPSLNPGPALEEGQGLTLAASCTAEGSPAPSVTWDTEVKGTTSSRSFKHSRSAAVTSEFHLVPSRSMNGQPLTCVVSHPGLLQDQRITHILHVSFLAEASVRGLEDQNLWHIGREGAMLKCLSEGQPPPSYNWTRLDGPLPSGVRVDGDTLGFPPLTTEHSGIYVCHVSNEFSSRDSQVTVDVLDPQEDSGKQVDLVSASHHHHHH
Nature of the assay: SPR ProteOn, mAb on protein A. The method, then:
Initial testing of binding of nectin-4 antibodies to nectin-4. […] Biotinylated protein A (15 μg/mL) was immobilized to the surface of an NLC chip. 30 nM of purified mAb supernatant was diluted in PBS-T and captured over the protein A surface. Serial dilutions of human nectin-4 were injected over the mAb-coated chips, and binding kinetics were determined. Chips were regenerated using 4:1 v/v of IgG elution butter/4M NaCl.

In the next assay the target is T2, human nectin-4 on cells (human, UniProt Q96NY8 32-510).
T2 construct: whole, on cells; also called PVRL4
T2 sequence (looked up): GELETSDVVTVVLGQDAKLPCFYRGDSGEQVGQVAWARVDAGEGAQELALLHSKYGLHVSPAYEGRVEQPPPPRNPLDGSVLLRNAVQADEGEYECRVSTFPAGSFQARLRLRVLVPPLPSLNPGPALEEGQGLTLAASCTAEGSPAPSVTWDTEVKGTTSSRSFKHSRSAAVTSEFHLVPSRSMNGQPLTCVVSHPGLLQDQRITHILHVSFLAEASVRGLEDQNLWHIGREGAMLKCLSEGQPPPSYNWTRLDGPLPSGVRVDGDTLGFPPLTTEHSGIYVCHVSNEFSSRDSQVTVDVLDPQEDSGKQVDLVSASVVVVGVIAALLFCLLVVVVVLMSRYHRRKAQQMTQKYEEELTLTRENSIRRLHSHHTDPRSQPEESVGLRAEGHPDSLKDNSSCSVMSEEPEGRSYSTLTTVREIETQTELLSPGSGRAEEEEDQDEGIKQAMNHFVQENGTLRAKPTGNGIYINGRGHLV
The experiment in a line: flow cytometry MFI, MNK74 (nectin-4 positive) over AGS (negative). A general note: A flow cytometer gives signals particle by particle.

In assay [2] the target is T1, Human nectin-4 ECD-6His (TNT-175). The experiment in a line: competition ELISA; nectin-4 ECD premixed with TNT201, captured by the coat antibody; % of signal without premix antibody. In outline:
(§1)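 Plates coated overnight at 4° C with goat anti-mouse IgG (1 mg/mL), premix of nectin-4 ECD and competing antibody added for one hour. Bound ECD detected with rabbit anti-6×His HRP (1:4,000, 1 h, room temperature) and ABTS for 20 minutes. O.D. background-normalized, expressed as percent of no-premix control at lowest nectin-4 dilution.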
In general terms: An ELISA detects its analyte on a solid surface through an enzyme-linked reagent.

The target is the same in assay [3]. The experiment in a line: competition ELISA; nectin-4 ECD premixed with TNT202, captured by the coat antibody; % of signal without premix antibody. In a few lines: as §1
Assay [4] shares this target. Nature of the assay: competition ELISA; nectin-4 ECD premixed with TNT203, captured by the coat antibody; % of signal without premix antibody. In outline: as §1
The target is the same in assay [5]. The experiment in a line: competition ELISA; nectin-4 ECD premixed with TNT204, captured by the coat antibody; % of signal without premix antibody. In a few lines:
as §1

For assay [6] the target is unchanged. The experiment in a line: competition ELISA; nectin-4 ECD premixed with TNT205, captured by the coat antibody; % of signal without premix antibody. In a few lines:
as §1

For assay [7] the target is unchanged. Nature of the assay: competition ELISA; nectin-4 ECD premixed with TNT206, captured by the coat antibody; % of signal without premix antibody. In outline:
as §1

For assay [8] the target is unchanged. Nature of the assay: competition ELISA; nectin-4 ECD premixed with TNT207, captured by the coat antibody; % of signal without premix antibody. In a few lines:
as §1

Assay [9] shares this target. Nature of the assay: competition ELISA; nectin-4 ECD premixed with TNT208, captured by the coat antibody; % of signal without premix antibody. In outline:
as §1

Assay [10] shares this target. The experiment in a line: competition ELISA; nectin-4 ECD premixed with TNT209, captured by the coat antibody; % of signal without premix antibody. In a few lines: as §1
For assay [11] the target is unchanged. The experiment in a line: competition ELISA; nectin-4 ECD premixed with TNT210, captured by the coat antibody; % of signal without premix antibody. In a few lines: as §1
The target is the same in assay [12]. Nature of the assay: competition ELISA; nectin-4 ECD premixed with TNT211, captured by the coat antibody; % of signal without premix antibody. In outline:
as §1

For assay [13] the target is unchanged. Nature of the assay: competition ELISA; nectin-4 ECD premixed with TNT212, captured by the coat antibody; % of signal without premix antibody. In outline: as §1

B1: TNT-198 (antibody, mouse IgG2a, kappa)
heavy: EVQLVQSGAEVKKPGSSVKVSCKASGGTFSSYAISWVRQAPGQGLEWMGWINPNSGGTNYAQKFQGRVTMTRDTSTSTAYMELSSLRSEDTAVYYCATGYYGDLYYFDYWGQGTLVTVSSAKTTAPSVYPLAPVCGDTTGSSVTLGCLVKGYFPEPVTLTWNSGSLSSGVHTFPAVLQSDLYTLSSSVTVTSSTWPSQSITCNVAHPASSTKVDKKIEPRGPTIKPCPPCKCPAPNLLGGPSVFIFPPKIKDVLMISLSPIVTCVVVDVSEDDPDVQISWFVNNVEVHTAQTQTHREDYNSTLRVVSALPIQHQDWMSGKEFKCKVNNKDLPAPIERTISKPKGSVRAPQVYVLPPPEEEMTKKQVTLTCMVTDFMPEDIYVEWTNNGKTELNYKNTEPVLDSDGSYFMYSKLRVEKKNWVERNSYSCSVVHEGLHNHHTTKSFSRTPGRPQGFGPP
light: DIVMTQSPSSLSASVGDRVTITCRASQGISNYLAWYQQKPGKVPKLLIYAASTLQSGVPSRFSGSGSGTEFTLAISSLQPEDLATYYCQQLNSHPITFGQGTRLEIKRADAAPTVSIFPPSSEQLTSGGASVVCFLNNFYPKDINVKWKIDGSERQNGVLNSWTDQDSKDSTYSMSSTLTLTKDEYERHNSYTCEATHKTSTSPIVKSFNRNEC
Take B1: the Kd (as a rule, the constant that tells how readily two partners part at equilibrium) in [1] was determined as 20.2 nM. Moreover, the koff (as a rule, a measure of how fast the partners let go of each other) in assay [1] was 0.00138 s⁻¹. In assay [1], the kon – broadly, the rate constant with which the complex forms – was found to be 68400 M⁻¹ s⁻¹. Also, the “Fold-change of binding to MNK74 compared to control AGS” value (“Fold-change of binding to MNK74” below) in the assay with human nectin-4 on cells is 5.9 fold. In addition, the “% of Positive” value in [2] came to 0.9%; in assay [3], 2.5%; in assay [4], 29.8%; in assay [5], 2.2%; in assay [6], 56.9%; in assay [7], 5.4%. Moreover, the “% of Positive” value in assay [8] is 1%; in [9] it was 2.1%; in [10] it was 26%; in assay [11] it was 0.8%; in [12], 19.5%; in assay [13], 1.9%.

B2: TNT-188 (antibody, mouse IgG2a, kappa)
heavy: EVQLVQSGAEVKKPGSSVKVSCKASGYTFTGYYMHWVRQAPGQGLEWMGWINPNSGGTNYAQKFQGRVTMTRDTSISTAYMELRSLRSDDTAVYYCARGSALHFFGVFDYWGQGTLVTVSSAKTTAPSVYPLAPVCGDTTGSSVTLGCLVKGYFPEPVTLTWNSGSLSSGVHTFPAVLQSDLYTLSSSVTVTSSTWPSQSITCNVAHPASSTKVDKKIEPRGPTIKPCPPCKCPAPNLLGGPSVFIFPPKIKDVLMISLSPIVTCVVVDVSEDDPDVQISWFVNNVEVHTAQTQTHREDYNSTLRVVSALPIQHQDWMSGKEFKCKVNNKDLPAPIERTISKPKGSVRAPQVYVLPPPEEEMTKKQVTLTCMVTDFMPEDIYVEWTNNGKTELNYKNTEPVLDSDGSYFMYSKLRVEKKNWVERNSYSCSVVHEGLHNHHTTKSFSRTPGRPQGFGPP
light: not shown
As for B2, the dissociation constant (Kd) in assay [1] was 7.03 nM. The same molecule yielded a koff in [1] of 0.00153 s⁻¹. Moreover, the kon in assay [1] was found to be 217000 M⁻¹ s⁻¹. The “Fold-change of binding to MNK74” value in the assay with human nectin-4 on cells was found to be 4.3 fold. For the same molecule, the “% of Positive” value is 2.7% in [2]; 12.8% in [3]; 40% in [4]; 9.2% in assay [5]; 52.5% in [6]; 20% in assay [7]. Further, the “% of Positive” value is 7.5% in [8]; 12.7% in assay [9]; 43.7% in assay [10]; 8% in [11]; 35.4% in [12]; 10.1% in assay [13].

B3: TNT-189 (antibody, mouse IgG2a, kappa)
heavy: EVQLVQSGAEVKKPGSSVKVSCKASGGTFSSYAISWVRQAPGQGLEWMGGIIPIFGTANYAQKFQGRVTITADESTSTAYMELSSLRSEDTAVYYCARGYSSSWYEPYYFDYWGQGTLVTVSSAKTTAPSVYPLAPVCGDTTGSSVTLGCLVKGYFPEPVTLTWNSGSLSSGVHTFPAVLQSDLYTLSSSVTVTSSTWPSQSITCNVAHPASSTKVDKKIEPRGPTIKPCPPCKCPAPNLLGGPSVFIFPPKIKDVLMISLSPIVTCVVVDVSEDDPDVQISWFVNNVEVHTAQTQTHREDYNSTLRVVSALPIQHQDWMSGKEFKCKVNNKDLPAPIERTISKPKGSVRAPQVYVLPPPEEEMTKKQVTLTCMVTDFMPEDIYVEWTNNGKTELNYKNTEPVLDSDGSYFMYSKLRVEKKNWVERNSYSCSVVHEGLHNHHTTKSFSRTPGRPQGFGPP
light: DIQLTQSPSSLSASVGDRVTITCRASQGISNYLAWYQQKPGKAPKLLIYAASTLQSGVPSRFSGSGSGTDFTLTISSLQPEDFATYYCQQSYSTPYTFGQGTKLEIKRADAAPTVSIFPPSSEQLTSGGASVVCFLNNFYPKDINVKWKIDGSERQNGVLNSWTDQDSKDSTYSMSSTLTLTKDEYERHNSYTCEATHKTSTSPIVKSFNRNEC
B3: in assay [1], binding was put at a Kd of 5.09 nM. Moreover, the off-rate constant (koff) in assay [1] is 0.00423 s⁻¹. The molecule further returned an on-rate (kon) in assay [1] of 832000 M⁻¹ s⁻¹. The “Fold-change of binding to MNK74” value in the assay with human nectin-4 on cells was 5 fold. Further, the “% of Positive” value in [2] is 1%; in assay [3], 4.3%; in assay [4], 29.3%; in assay [5] it was 3.9%; in assay [6], 44.4%; in assay [7], 10.5%. The “% of Positive” value amounted to 2.4% in assay [8]; 4.3% in assay [9]; 26.7% in assay [10]; 2.7% in [11]; 27% in assay [12]; 3.1% in assay [13].
